Experimental data: patent US20220031841A1 (ABSCI, published 2022)

Tests used:
Assay in all cases: HuProt protein array, F635 z-score
[1] = target: T1, Chromobox protein homolog 1 (CBX1) (human, UniProt P83916 1-185)
T1 construct: The array carries full-length recombinant human proteins expressed in S. cerevisiae; also called Human Chromobox protein homolog 1
Excerpt: (§1) Large scale protein arrays are versatile and sensitive platforms for antibody specificity evaluation. They can be used for the evaluation of protein binding or affinity reagents that are widely employed in research and clinical applications. The microarray used in our target identification experiment provides the largest number of unique, full-length, individually purified human proteins on a single microscope slide. This allows thousands of interactions to be profiled in a high-throughput manner. The hill-length recombinant proteins are expressed in the yeast S. cerevisiae, purified, and printed on glass slides in duplicate along with a set of control proteins (GST, BSA, histones, IgG, etc.). Such microarray is not restricted to a particular type of surface coating, although the default is glass coated with ultra-thin nitrocellulose film for the non-covalent, yet irreversible, capture of active proteins to the surface. Fourteen Protein arrays were used for the antibody cross-reactivity assay of the samples. The antibodies were probed at […] on the arrays and incubated at room temperature for 1 hour. After probing, the arrays were washed according to the protocol and probed with Alexa-647-anti-human IgG […] specific secondary antibodies under conditions optimized for signal detection. The antibody-antigen binding score was calculated for each protein represented on the array and expressed as z-scores.
(§2) Antibody samples are probed on native HuProt arrays at 1 μg/ml and incubated at room temperature for 1 hour. After probing, the arrays are washed according to the standard protocols and probed with Alexa-647-anti-human IgG Fc gamma specific secondary antibodies under conditions optimized for signal detection.
(§3) Z score is the average Z score of the duplicate spots of a given protein (each protein is printed in duplicate on a HuProt™ array). The Z score of each spot on a given array is calculated according to the equation: […]

[2] = target: T2, Chromobox protein homolog 5 (CBX5) (human, UniProt P45973 1-191)
T2 construct: The array carries full-length recombinant human proteins expressed in S. cerevisiae; also called Human Chromobox protein homolog 5
T2 sequence (P45973 whole entry): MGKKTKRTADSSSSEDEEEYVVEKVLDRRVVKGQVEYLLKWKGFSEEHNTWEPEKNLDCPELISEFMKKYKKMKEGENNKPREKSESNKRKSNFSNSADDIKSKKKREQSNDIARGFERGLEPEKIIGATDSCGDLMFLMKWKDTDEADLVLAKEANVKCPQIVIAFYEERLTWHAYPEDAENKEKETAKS
Excerpt: as §1, §2, §3

[3] = target: T3, Cancer/testis antigen 1 (CTAG1A) (human, UniProt P78358 1-180)
T3 construct: The array carries full-length recombinant human proteins expressed in S. cerevisiae; also called NY-ESO-1; Cancer/Testis Antigen 1A
T3 sequence (P78358 whole entry): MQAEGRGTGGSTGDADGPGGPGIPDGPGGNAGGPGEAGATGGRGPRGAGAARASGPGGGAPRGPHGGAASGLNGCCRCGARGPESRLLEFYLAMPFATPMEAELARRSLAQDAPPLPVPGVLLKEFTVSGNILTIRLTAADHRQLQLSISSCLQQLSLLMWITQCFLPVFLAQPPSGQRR
Excerpt: as §1, §2, §3

[4] = target: T4, Melanoma-associated antigen 3 (MAGE-A3) (human, UniProt P43357 1-314)
T4 construct: The array carries full-length recombinant human proteins expressed in S. cerevisiae; also called Human MAGE-A3
T4 sequence (P43357 whole entry): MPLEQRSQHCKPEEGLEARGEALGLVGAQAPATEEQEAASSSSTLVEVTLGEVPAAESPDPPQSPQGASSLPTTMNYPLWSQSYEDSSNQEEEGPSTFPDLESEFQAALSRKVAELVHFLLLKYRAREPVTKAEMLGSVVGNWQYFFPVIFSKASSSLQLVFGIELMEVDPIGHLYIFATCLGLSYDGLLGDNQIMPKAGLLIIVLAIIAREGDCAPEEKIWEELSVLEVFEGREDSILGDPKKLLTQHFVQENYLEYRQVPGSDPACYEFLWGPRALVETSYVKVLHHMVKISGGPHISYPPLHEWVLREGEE
Excerpt: as §1, §2, §3

[5] = target: T5, Inorganic pyrophosphatase (PPA1) (human, UniProt Q15181 2-289)
T5 construct: The array carries full-length recombinant human proteins expressed in S. cerevisiae; also called Human PPA1
T5 sequence: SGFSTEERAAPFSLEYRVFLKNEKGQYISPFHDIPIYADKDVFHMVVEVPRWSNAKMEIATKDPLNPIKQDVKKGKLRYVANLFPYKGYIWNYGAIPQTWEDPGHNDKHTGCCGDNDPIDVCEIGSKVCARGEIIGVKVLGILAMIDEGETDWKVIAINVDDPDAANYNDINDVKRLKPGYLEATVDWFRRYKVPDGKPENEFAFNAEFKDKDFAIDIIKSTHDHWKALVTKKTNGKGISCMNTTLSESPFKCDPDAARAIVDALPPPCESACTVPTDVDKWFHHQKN
Excerpt: as §1, §2, §3

[6] = target: T6, Alpha-taxilin (TXLNA) also known as interleukin-14A (human, UniProt P40222 1-546)
T6 construct: The array carries full-length recombinant human proteins expressed in S. cerevisiae; also called IL-14A; TXLNA/IL-14A
T6 sequence (P40222 whole entry): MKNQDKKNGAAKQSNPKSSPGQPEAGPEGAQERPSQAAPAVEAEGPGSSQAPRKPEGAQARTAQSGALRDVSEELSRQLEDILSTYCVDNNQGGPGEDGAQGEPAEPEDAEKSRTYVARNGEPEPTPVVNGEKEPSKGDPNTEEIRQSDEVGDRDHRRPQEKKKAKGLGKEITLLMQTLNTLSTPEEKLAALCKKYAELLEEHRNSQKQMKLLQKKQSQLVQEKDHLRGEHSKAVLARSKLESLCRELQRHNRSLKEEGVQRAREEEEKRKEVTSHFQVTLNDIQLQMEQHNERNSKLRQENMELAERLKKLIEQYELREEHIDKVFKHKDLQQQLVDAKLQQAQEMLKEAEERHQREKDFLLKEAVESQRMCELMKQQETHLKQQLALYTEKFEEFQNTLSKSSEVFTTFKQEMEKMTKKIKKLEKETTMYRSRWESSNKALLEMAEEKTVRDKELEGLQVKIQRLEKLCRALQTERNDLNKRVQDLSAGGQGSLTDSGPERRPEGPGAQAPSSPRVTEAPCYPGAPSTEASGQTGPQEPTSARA
Excerpt: as §1, §2, §3

[7] = target: T7, O-linked N-acetylglucosamine (GlcNAc) transferase (OGT) (human, UniProt O15294 2-1046)
T7 construct: The array carries full-length recombinant human proteins expressed in S. cerevisiae; also called Human OGT
T7 sequence: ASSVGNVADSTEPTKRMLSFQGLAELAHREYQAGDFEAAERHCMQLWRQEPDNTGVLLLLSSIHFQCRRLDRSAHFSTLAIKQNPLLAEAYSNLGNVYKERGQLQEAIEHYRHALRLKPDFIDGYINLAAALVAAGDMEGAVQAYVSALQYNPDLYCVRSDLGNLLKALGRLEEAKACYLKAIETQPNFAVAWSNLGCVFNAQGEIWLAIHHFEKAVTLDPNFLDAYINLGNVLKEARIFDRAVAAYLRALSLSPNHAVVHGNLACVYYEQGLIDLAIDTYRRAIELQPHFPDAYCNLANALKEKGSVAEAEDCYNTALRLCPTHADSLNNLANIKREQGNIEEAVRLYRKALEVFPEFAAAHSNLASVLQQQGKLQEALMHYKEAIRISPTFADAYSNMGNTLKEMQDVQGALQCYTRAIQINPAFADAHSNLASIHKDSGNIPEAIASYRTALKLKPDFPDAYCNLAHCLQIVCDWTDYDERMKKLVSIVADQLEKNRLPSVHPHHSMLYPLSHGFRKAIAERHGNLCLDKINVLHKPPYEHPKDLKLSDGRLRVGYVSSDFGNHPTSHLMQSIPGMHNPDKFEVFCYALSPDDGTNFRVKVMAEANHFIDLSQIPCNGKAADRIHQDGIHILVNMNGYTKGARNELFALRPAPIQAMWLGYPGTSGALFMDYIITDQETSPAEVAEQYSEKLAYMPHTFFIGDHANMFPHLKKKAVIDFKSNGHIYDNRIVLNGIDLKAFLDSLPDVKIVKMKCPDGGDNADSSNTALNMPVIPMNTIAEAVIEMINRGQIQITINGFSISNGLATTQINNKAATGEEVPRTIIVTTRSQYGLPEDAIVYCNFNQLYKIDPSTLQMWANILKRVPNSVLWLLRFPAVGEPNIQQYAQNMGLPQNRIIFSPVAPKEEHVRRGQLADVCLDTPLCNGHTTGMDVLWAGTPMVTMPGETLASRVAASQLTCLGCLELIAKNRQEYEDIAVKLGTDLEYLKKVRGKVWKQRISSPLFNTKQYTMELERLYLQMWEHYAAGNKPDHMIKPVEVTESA
Excerpt: as §1, §2, §3

[8] = target: T8, Src homology 2 (SH2) domain containing inositol polyphosphate 5-phosphatase 1 (SHIP1) (human, UniProt Q92835 1-1189)
T8 construct: The array carries full-length recombinant human proteins expressed in S. cerevisiae, purified and printed on glass slides; also called INPP5D; INPP5D/SHIP1
T8 sequence: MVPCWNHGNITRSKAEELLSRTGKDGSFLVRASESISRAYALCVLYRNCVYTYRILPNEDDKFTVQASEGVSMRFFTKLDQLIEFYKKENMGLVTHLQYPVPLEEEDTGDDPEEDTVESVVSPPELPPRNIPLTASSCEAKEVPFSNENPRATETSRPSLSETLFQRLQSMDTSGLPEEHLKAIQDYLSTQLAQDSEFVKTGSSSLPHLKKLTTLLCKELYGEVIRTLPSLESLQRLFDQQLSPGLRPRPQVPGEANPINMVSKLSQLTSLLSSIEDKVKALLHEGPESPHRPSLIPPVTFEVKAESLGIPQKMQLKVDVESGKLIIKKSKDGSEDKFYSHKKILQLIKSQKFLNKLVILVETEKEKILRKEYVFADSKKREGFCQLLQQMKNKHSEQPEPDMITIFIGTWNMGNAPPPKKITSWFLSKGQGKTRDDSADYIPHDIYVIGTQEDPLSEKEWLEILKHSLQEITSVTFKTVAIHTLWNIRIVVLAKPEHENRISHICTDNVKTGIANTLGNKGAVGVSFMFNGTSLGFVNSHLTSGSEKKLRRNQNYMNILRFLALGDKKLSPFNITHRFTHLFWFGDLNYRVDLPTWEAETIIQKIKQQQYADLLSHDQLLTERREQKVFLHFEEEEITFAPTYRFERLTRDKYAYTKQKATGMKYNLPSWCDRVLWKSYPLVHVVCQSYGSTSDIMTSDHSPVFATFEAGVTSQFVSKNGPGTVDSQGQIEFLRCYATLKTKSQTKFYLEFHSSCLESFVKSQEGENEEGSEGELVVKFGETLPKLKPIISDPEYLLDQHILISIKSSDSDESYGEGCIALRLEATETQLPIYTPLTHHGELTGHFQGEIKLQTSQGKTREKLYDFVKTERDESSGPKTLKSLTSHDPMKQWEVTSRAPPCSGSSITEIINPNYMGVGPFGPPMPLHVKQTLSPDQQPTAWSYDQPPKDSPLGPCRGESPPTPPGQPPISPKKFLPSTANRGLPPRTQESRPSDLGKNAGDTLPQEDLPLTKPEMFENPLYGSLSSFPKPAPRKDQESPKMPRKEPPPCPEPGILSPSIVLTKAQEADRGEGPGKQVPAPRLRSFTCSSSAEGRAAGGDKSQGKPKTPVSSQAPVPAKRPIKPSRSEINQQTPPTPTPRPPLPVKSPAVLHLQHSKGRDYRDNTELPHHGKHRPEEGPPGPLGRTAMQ
Excerpt: as §1, §2, §3

Measured: binding result

T1 sequence (P83916 whole entry): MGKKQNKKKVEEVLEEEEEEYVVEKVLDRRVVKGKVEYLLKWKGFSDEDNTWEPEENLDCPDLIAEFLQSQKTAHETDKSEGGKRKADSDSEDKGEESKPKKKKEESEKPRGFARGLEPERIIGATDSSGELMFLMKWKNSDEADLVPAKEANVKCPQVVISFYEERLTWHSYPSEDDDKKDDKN

B1: TMEL1001 (antibody, V domains shown)
VH: EVQLVESGGGLVKPGGSLRLSCAASGFTFRSYSMNWVRQAPGKGLEWVSSISSSGNYIYYADSVKGRFTLSRDNAKNSLYLQMNSLRAEDTAVYYCARGGGTSWSHYWGQGTLVTVSS
VL: QFMLTQPHSVSESPGKTVTISCTRSSGSIASNYVQWYQQRPGSAPTTVIYEDNERPSGVPDRFSGSIDSSSNSASLTISGLKTEDEADYYCQSYDSNNRWVFGGGTKLTVLG
notes: It was detected with an anti-human IgG Fc gamma secondary antibody
not listed: [8]
no binding (tested: 1 µg/ml): all other assays above

B2: TMEL1006 (antibody, V domains shown)
VH: VVQLVESGGGLVQPGGSLRLSCAASGLTFRNYAMSWVRQAPGKGLEWVSAISGSGGRTHYADSVKGRFTISRDNSKNTLFLQMNSLRAEDTAVYYCAKEIGKYGTPTLFQHWGQGTLVTVSS
VL: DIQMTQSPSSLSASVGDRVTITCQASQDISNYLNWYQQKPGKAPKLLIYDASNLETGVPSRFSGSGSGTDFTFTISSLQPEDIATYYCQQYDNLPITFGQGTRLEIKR
notes: as for B1
not listed: [3] | [4]
no binding (tested: 1 µg/ml): all other assays above

B3: TMEL1003 (antibody, V domains shown)
VH: AVQLVQSGAEVKKPGESLRISCKGSGYSFTSYWISWVRQMPGKGLEWMGRIDPSDSYTNYSPSFQGHVTISADKSISTAYLQWSSLKTSDTAMYYCARPLQTYSIASVGHWGQGTLVTVSS
VL: ASALTQPASVSGSPGQSITISCTGTSSDVGSYNLVSWYQQHPGKAPKLMIYEGSKRPSGVSNRFSGSKSGNTASLTISGLQAEDEADYYCCSYAGSSTFAVFGGGTKLTVLG
notes: the heavy entry continues into what looks like a non-IgG (IgM-like) CH1; It was detected with an anti-human IgG Fc gamma secondary antibody
no binding (tested: 1 µg/ml): [8] | [3] | [4] | [5] | [7]
